Assay results from patent US9828641B2, “Systemic genotoxicity as blood marker for allergic inflammation” (The Regents of the University of California, priority 2013, dated 2017).
“Also recorded” adds a separate entry of the source. Blank lines part the entries; values can stand above or below the molecule they belong to.

Key:
[1] = literature statement; cited from earlier work
[2] = test system: TNF-α, MCP-1, IFN-γ, TGF-β transcripts; assay: Quantitative real-time PCR of cytokines in peripheral blood; type: in vivo, mice; details: 3% DSS, particularly after the first cycle
Experimental: Total RNA was isolated using QiaAmp RNA Blood Mini Kit (Qiagen) according to manufacturer's instructions. 25 ng/μl of total RNA was used for reverse transcription using OligodT (Invitrogen) and Superscript III Reverse Transcriptase (Invitrogen). 10 ng/μl of cDNA was used for quantitative real time PCR using Taqman Gene Expression Assays (Applied Biosystems, Foster City, Calif. p/n 4331182) for Tbp (TATA binding protein), TNF-α (tumor necrosis factor α), MCP-1 (monocyte chemoattractant protein 1, also known as CC chemokine ligand 2, CCL2), IFN-γ (interferon γ), TGF-β ([…]) and Taqman Gene Expression Master Mix according to manufacturer's instructions on the ABI Prism 7500 sequence detection system (Applied Biosystems). Tbp was chosen as the endogenous control due to its low variability and low to medium relative abundance in terms of expression in blood (30). Each measurement was performed in triplicate and results were analyzed using SDS 2.2.1 software (Applied Biosystems). Gene expression was determined using the relative standard curve method normalized to Tbp expression.

[3] = test system: peripheral leukocytes; assay: γ-H2AX immunofluorescence (DNA double strand breaks); type: in vivo, mice; details: 3% DSS
Experimental: Peripheral blood was incubated in Buffer EL (Qiagen, Valencia, Calif.) on ice to remove erythrocytes. Samples were then processed on coverslips essentially as described elsewhere (26). […] Coverslips were mounted with [sequence] with 4,6-diamidino-2-phenylindole (Vector Laboratories, Burlingame, Calif.). Images were captured with CytoVision® (Applied Imaging Corporation, San Jose, Calif.) connected to a Zeiss Axioplan 2 microscope. At least 125 cells were counted and cells with more than four distinct foci in the nucleus were considered positive for γ-H2AX (26). Apoptotic cells, which are distinguishable due to presence of 10-fold the number of nuclear foci in damaged cells (27), were not included in analyses.
Peripheral blood and splenocytes were incubated in Buffer EL (Qiagen, Valencia, Calif.) on ice to remove erythrocytes. […] Samples were then processed on coverslips as described elsewhere (6). Briefly, after permeabilization and blocking, cells were incubated with mouse anti-phospho-Histone H2A.X S139(P) (Upstate, Temecula, Calif.) at 1:400 followed by FITC-conjugated anti-mouse IgG (Jackson ImmunoResearch, West Grove, Pa.) at 1:200. Coverslips were mounted with [sequence] with 4,6-diamidino-2-phenylindole (Vector Laboratories, Burlingame, Calif.). […] At least 125 cells were counted and cells with more than four distinct foci in the nucleus were considered positive (6). […]

[4] = test system: peripheral leukocytes; assay: Alkaline comet assay with and without hOgg1 incubation; type: in vivo; details: wildtype mice, single tail vein injection; for Time of maximum DNA damage to peripheral leukocytes: TNF-α 500 ng or IL-β 100 ng alone; for Time to repair of DNA damage in peripheral leukocytes: TNF-α 500 ng/mouse or IL-β 100 ng/mouse alone
Experimental: Frozen blood was further diluted 1:15 in PBS before further preparation.
(§1) The enzyme hOgg1-modified comet assay was used for determination of oxidative DNA damage (25). Following lysis, samples were washed in an enzyme wash buffer (40 mM HEPES, 0.1M KCl, 0.5 mM EDTA, 0.2 mg/ml BSA, pH 8.0) then incubated at 37° C. for 10 min in either control (buffer with no hOGG1) or enzyme treated (buffer with hOGG1) solutions according to the manufacturer's recommendations. (New England Biolabs, Ipswich, Mass.). Both control and enzyme treated gels were then placed in electrophoresis buffer and processed identically to the alkaline comet assay.
The enzyme hOgg1-modified comet assay was used and carried out identically as previously described (1).
as §1, with “For determination of oxidative DNA damage the” for “The”, “(5). After lysis in the alkaline comet assay,” for “for determination of oxidative DNA damage (25). Following lysis,”, “recommendations” for “recommendations.”
Control animals received vehicle only.

[5] = test system: normochromatic erythrocytes; assay: In vivo micronucleus assay; details: wildtype mice, 48 hours post-injection
Experimental: Micronuclei (MN) formation was determined in peripheral blood erythrocytes to assess chromosomal instability. Similar to a previously proposed method (28), 3 μl of whole blood was spread on a microscope slide and stained in Modified Wright-Giemsa solution (Sigma-Aldrich, St. Louis, Mo.). MN were counted and scored with an Olympus Ax70 (Tokyo, Japan) at 100× following previously proposed criteria (29). At least 4000 mature erythrocytes were counted per mouse, and the frequency of MN formation was calculated as number of micronucleated erythrocytes per 1000 normochromatic erythrocytes.
Micronucleus formation was determined in normochromatic erythrocytes as micronucleated normochromatic erythrocytes per 1000 normochromatic erythrocytes as described previously (1, 8).
Mouse TNF-α (Sigma) and/or mouse IL-1β (Sigma) were injected via the tail vein at 500 ng/mouse and 100 ng/mouse, respectively, dissolved in saline. Control animals received vehicle only. Peripheral blood was collected at 1 hr, 2 hrs, 4 hrs, and 24 hrs after injection for genotoxicity assays.

- Percentage of cells positive for γ-H2AX nuclear foci vs non-treated ([3]; after first 7 day acute treatment, p<0.01): increased dramatically
Molecule: dextran sulfate sodium [DSS]
- Direct mutagenicity/genotoxicity [1]: not a mutagen nor genotoxic; also recorded: not directly genotoxic
- Cytokine mRNA expression in peripheral blood [2]: up-regulation of TNF-α, MCP-1 (CCL2), and IFN-γ
- Percent γ-H2AX positive cells vs non-treated, chronic phase ([3]; until end of treatment, p<0.05): remained elevated over non-treated animals

Molecule: TNF-α
- Onset of DNA damage to peripheral leukocytes (comet and γ-H2AX) ([4]; TNF-α 500 ng/mouse): 1 hour post-injection
- Time until which DNA damage remained elevated ([4]; TNF-α 500 ng/mouse): approximately 4 hours post-injection
- Time of maximum DNA damage to peripheral leukocytes [4]: 1 hours post-injection
- Time to repair of DNA damage in peripheral leukocytes [4]: ≤ 24 hours post-injection
- Micronuclei formation in normochromatic erythrocytes vs before injection [5]: minimally yet significantly elevated

B1: IL-β: Recombinant mouse IL-1β (Sigma), injected via the tail vein at 100 ng/mouse (protein, UniProt P10749 118-269, looked up)
Interleukin-1 beta: VPIRQLHYRLRDEQQKSLVLSDPYELKALHLNGQNINQQVIFSMSFVQGEPSNDKIPVALGLKGKNLYLSCVMKDGTPTLQLESVDPKQYPKKKMEKRFVFNKIEVKSKVEFESAEFPNWYISTSQAEHKPVFLGNNSGQDIIDFTMESVSS
- Time of maximum DNA damage to peripheral leukocytes [4]: 4 hours post-injection
- Time to repair of DNA damage in peripheral leukocytes [4]: ≤ 24 hours post-injection
